Values of other authors, collected in US10966977B2, “Combination of anti-CD20 antibody, P13 kinase-delta selective inhibitor, and BTK inhibitor to treat b-cell proliferative disorders” (TG Therapeutics, Inc., priority 2016, dated 2021).
Entries after “also recorded” stand apart in the source; their conditions may differ. Structures can show the parent of a compound that is named as a salt. Blank lines part the entries; values can stand above or below the molecule they belong to.

Legend:
[1] = test system: relapsed and refractory hematologic malignancies; conditions: single agent
CD20 = target: T1, CD20 (Homo sapiens, UniProt P11836)
T1 sequence (P11836 1-297): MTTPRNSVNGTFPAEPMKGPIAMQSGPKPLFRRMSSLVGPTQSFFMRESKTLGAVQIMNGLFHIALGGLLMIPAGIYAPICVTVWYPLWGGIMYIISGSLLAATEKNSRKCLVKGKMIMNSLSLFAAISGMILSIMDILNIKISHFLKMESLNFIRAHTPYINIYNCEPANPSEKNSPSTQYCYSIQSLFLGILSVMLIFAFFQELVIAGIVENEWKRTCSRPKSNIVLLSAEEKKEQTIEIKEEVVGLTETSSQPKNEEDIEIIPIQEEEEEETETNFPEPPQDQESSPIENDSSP

CD20 antigen = target: T2, CD20 antigen (Homo sapiens, UniProt P11836)
T2 sequence (P11836 1-297): T1 sequence (P11836 1-297)

[2] = single agent

Molecule: CC(C)Oc1ccc(-c2nn([C@@H](C)c3oc4ccc(F)cc4c(=O)c3-c3cccc(F)c3)c3ncnc(N)c23)cc1F [TGR-1202, (S)-2-(1-(4-amino-3-(3-fluoro-4-isopropoxyphenyl)-1H-pyrazolo[3,4-d]pyrimidin-1-yl)ethyl)-6-fluoro-3-(3-fluorophenyl)-4H-chromen-4-one p-toluenesulfonic acid (PTSA) salt]
hepatic toxicity [1]: no reported hepatic toxicity
tolerability ([1]; patients with relapsed or refractory hematologic malignancies): well-tolerated

dissociation rate from CD20 compared to rituximab (CD20): slower rate
Molecule: ofatumumab: anti-CD20 IgG1κ human monoclonal antibody

B1: Ublituximab: chimeric monoclonal antibody targeting a unique epitope on the CD20 antigen, glycoengineered for enhanced affinity for Fcγ RIIIa receptors (antibody, V domains shown)
VH: QAYLQQSGAELVRPGASVKMSCKASGYTFTSYNMHWVKQTPRQGLEWIGGIYPGNGDTSYNQKFKGKATLTVGKSSSTAYMQLSSLTSEDSAVYFCARYDYNYAMDYWGQGTSVTVSS
VL: QIVLSQSPAILSASPGEKVTMTCRASSSVSYMHWYQQKPGSSPKPWIYATSNLASGVPARFSGSGSGTSYSFTISRVEAEDAATYYCQQWTFNPPTFGGGTRLEIK
modifications: Ublituximab Variable heavy chain; Ublituximab Variable light chain
ADCC activity compared with rituximab and ofatumab (CD20 antigen): greater antibody-dependent cellular cytotoxicity
responses in rituximab refractory patients [2]: Responses with single agent ublituximab were observed in rituximab refractory patients; also recorded: Responses with single agent ublituximab have been observed in rituximab refractory patients
